In one test the target is GroEL (E. coli) (UniProt P0A6F5).
Test [1] deals with guanyl-nucleotide binding protein Ras (21 kDa). Put plainly: competition fluorescence polarization: 4 µM Ras (negative control) preincubated with 4 µM unlabeled pyrrhocoricin, then 1 nM fluorescein-K-pyrrhocoricin; used as the correction for the DnaK and GroEL readings.
Test [2] has the same target. Kind of test: competition fluorescence polarization: 4 µM Ras (negative control) preincubated with 8 µM unlabeled pyrrhocoricin, then 1 nM fluorescein-K-pyrrhocoricin; used as the correction for the DnaK and GroEL readings.

The values below come from patent US20030108957A1.

With “fluorescein-labeled β-tubulin fragment aa434-445 (peptide)”, in the test with GroEL (E. coli), the millipolarization over the background turned out to be 50%.

On to “pyrrhocoricin (unlabeled, all L-amino acids, without sugar) (peptide)”, for which the results for the decrease of the millipolarization reading after preincubation (millipolarization units) in test [1] and in test [2] were 16 and 27, respectively.
